Laboratory results as given in publication PMC4818781 (EMBO Reports, 2016).
Values joined by “and” are separate entries in the source; they are usually repeats but may differ in a detail not shown here. Equal entries are not always repeated.

Legend:
[1] = target: the molecule itself; experiment: SEC-MALS; room temperature; 100 μl of protein at 1 mg/ml; 50 mM HEPES pH 8, 300 mM NaCl, 1 mM TCEP
[2] = target: the molecule itself; experiment: SEC-MALS; room temperature; 100 μl of protein at 1 mg/ml; 50 mM HEPES pH 8, 50 mM NaCl, 5 mM DTT
[3] = target: the molecule itself; experiment: SEC-MALS; room temperature; 100 μl of protein at 1 mg/ml; 50 mM HEPES pH 8, 150 mM NaCl, 5 mM DTT; elution volumes of SEC also told
[4] = target: hsMis18β_(56–183), Yippee‐like globular domain of human Mis18β (human, UniProt O43482 56-183); experiment: as above; details: both partners purified
Chain of hsMis18β_(56–183), Yippee‐like globular domain of human Mis18β (O43482 56-183): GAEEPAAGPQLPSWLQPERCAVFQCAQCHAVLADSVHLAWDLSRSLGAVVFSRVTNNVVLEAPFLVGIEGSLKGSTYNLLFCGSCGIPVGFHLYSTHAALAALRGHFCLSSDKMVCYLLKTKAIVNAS

B1: His‐GFP‐spMis18fl, recombinant full‐length S. pombe Mis18 (natural protein, Schizosaccharomyces pombe, UniProt Q9P802 1-194, looked up)
chain: MSQTETSHSGYIDFKKESQPSVFQCKKCFQIVGDSNAWVISHREYLSFTLSDAVENSVRVEDTFKRSDDGLCVYSELSCTRCNEVIGKVYNSTPIYLDDIRDMYTFSMDKLQAYQLGNKTVNPEGLTRYQVDLEMREDIIKLKSFCLSLYEKFELHDETLRSVKETISSLKKPKIEGKEGKKEKARTYSKRTRK
[1]
  stoichiometry N: 4 and 2

B2: His‐spMis18ΔC (amino acids 1–168) (domain or fragment, Schizosaccharomyces pombe, UniProt Q9P802 1-168, looked up)
chain: MSQTETSHSGYIDFKKESQPSVFQCKKCFQIVGDSNAWVISHREYLSFTLSDAVENSVRVEDTFKRSDDGLCVYSELSCTRCNEVIGKVYNSTPIYLDDIRDMYTFSMDKLQAYQLGNKTVNPEGLTRYQVDLEMREDIIKLKSFCLSLYEKFELHDETLRSVKETIS
[2]
  stoichiometry N: 2 and 4

B3: His‐GFP‐spMis18_(C‐term‐α), C‐terminal α‐helical domain of S. pombe Mis18 (domain or fragment, Schizosaccharomyces pombe, UniProt Q9P802 121-194, looked up)
chain: VNPEGLTRYQVDLEMREDIIKLKSFCLSLYEKFELHDETLRSVKETISSLKKPKIEGKEGKKEKARTYSKRTRK
[3]
  stoichiometry N: 3

B4: His‐hsMis18α_(77–187), Yippee‐like globular domain of human Mis18α (domain or fragment, UniProt Q9NYP9 77-187, looked up)
chain: EERPLVFLCSGCRRPLGDSLSWVASQEDTNCILLRCVSCNVSVDKEQKLSKREKENGCVLETLCCAGCSLNLGYVYRCTPKNLDYKRDLFCLSVEAIESYVLGSSEKQIVS
[4]
  stoichiometry N: 1
[3]
  stoichiometry N: 2

B5: His‐spMis18_(1–120), N‐terminal Yippee‐like globular domain of S. pombe Mis18 (domain or fragment, Schizosaccharomyces pombe, UniProt Q9P802 1-120, looked up)
chain: MSQTETSHSGYIDFKKESQPSVFQCKKCFQIVGDSNAWVISHREYLSFTLSDAVENSVRVEDTFKRSDDGLCVYSELSCTRCNEVIGKVYNSTPIYLDDIRDMYTFSMDKLQAYQLGNKT
[3]
  stoichiometry N: 2
